According to PMC3241732 (The Journal of Cell Biology, 2011):

Molecular target: T1, His6-Cdc12 (Saccharomyces cerevisiae, UniProt P32468 1-407)
T1 sequence: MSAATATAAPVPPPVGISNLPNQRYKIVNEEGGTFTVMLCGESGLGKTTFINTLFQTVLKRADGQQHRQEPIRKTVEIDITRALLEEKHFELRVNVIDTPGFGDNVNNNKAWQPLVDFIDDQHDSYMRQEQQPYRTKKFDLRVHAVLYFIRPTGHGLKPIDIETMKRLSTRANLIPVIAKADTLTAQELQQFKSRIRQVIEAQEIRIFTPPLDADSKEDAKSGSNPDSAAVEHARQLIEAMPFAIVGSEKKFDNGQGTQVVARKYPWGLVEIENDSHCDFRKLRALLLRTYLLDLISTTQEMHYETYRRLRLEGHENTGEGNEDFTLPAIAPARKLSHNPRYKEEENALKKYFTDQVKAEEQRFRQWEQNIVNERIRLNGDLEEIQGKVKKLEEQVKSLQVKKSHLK
Assay: negative-stain EM, single-particle class averages

B1: Cdc11 (natural protein)
chain: MSGIIDASSALRKRKHLKRGITFTVMIVGQSGSGRSTFINTLCGQQVVDTSTTILLPTDTSTEIDLQLREETVELEDDEGVKIQLNIIDTPGFGDSLDNSPSFEIISDYIRHQYDEILLEESRVRRNPRFKDGRVHCCLYLINPTGHGLKEIDVEFIRQLGSLVNIIPVISKSDSLTRDELKLNKKLIMEDIDRWNLPIYNFPFDEDEISDEDYETNMYLRTLLPFAIIGSNEVYEMGGDVGTIRGRKYPWGILDVEDSSISDFVILRNALLISHLHDLKNYTHEILYERYRTEALSGESVAAESIRPNLTKLNGSSSSSTTTRRNTNPFKQSNNINNDVLNPASDMHGQSTGENNETYMTREEQIRLEEERLKAFEERVQQELLLKRQELLQREKELREIEARLEKEAKIKQEE
With B1 the “percent of particles that are heptamers” value was 10%, the “percent of particles that are hexamers” value was 4% and the “percent of particles that are octamers” value was 86%.

B2: Shs1 (natural protein)
chain: MSTASTPPINLFRRKKEHKRGITYTMLLCGPAGTGKTAFANNLLETKIFPHKYQYGKSNASISSNPEVKVIAPTKVVSFNSKNGIPSYVSEFDPMRANLEPGITITSTSLELGGNKDQGKPEMNEDDTVFFNLIMTHGIGENLDDSLCSEEVMSYLEQQFDIVLAEETRIKRNPRFEDTRVHVALYFIEPTGHGLREVDVELMKSISKYTNVLPIITRADSFTKEELTQFRKNIMFDVERYNVPIYKFEVDPEDDDLESMEENQALASLQPFAIITSDTRDSEGRYVREYPWGIISIDDDKISDLKVLKNVLFGSHLQEFKDTTQNLLYENYRSEKLSSVANAEEIGPNSTKRQSNAPSLSNFASLISTGQFNSSQTLANNLRADTPRNQVSGNFKENEYEDNGEHDSAENEQEMSPVRQLGREIKQENENLIRSIKTESSPKFLNSPDLPERTKLRNISETVPYVLRHERILARQQKLEELEAQSAKELQKRIQELERKAHELKLREKLINQNKLNGSSSSINSLQQSTRSQIKKNDTYTDLASIASGRD
B2 was tested, and the “percent of particles that are heptamers” value was 15%, the “percent of particles that are hexamers” value was 38% and the “percent of particles that are octamers” value was 47%.

B3: Shs1(Δ349–551) (domain or fragment)
chain: MSTASTPPINLFRRKKEHKRGITYTMLLCGPAGTGKTAFANNLLETKIFPHKYQYGKSNASISSNPEVKVIAPTKVVSFNSKNGIPSYVSEFDPMRANLEPGITITSTSLELGGNKDQGKPEMNEDDTVFFNLIMTHGIGENLDDSLCSEEVMSYLEQQFDIVLAEETRIKRNPRFEDTRVHVALYFIEPTGHGLREVDVELMKSISKYTNVLPIITRADSFTKEELTQFRKNIMFDVERYNVPIYKFEVDPEDDDLESMEENQALASLQPFAIITSDTRDSEGRYVREYPWGIISIDDDKISDLKVLKNVLFGSHLQEFKDTTQNLLYENYRSEKLSSVANAEEIGP
B3 was tested, and the “percent of particles that are octamers” value was 72%.
